The supplement of paper PMC10065799, “High-throughput profiling of sequence recognition by tyrosine kinases and SH2 domains using bacterial peptide display” (eLife, 2023)

What was measured:
Grb2 SH2 = Grb2 SH2 (UniProt P62993); assay: SH2 binding enrichment of the phosphorylated peptide, bacterial display (enrichment ratio); higher = better substrate or ligand; peptides without Tyr show the background
c-Src SH2 = assay: as above
SHP2-C SH2 = assay: as above
Hck = Hck (UniProt P08631); assay: phosphorylation enrichment, bacterial display (enrichment ratio); higher = better substrate or ligand; peptides without Tyr show the background
c-Src = assay: as above
Fyn = Fyn (UniProt P06241); assay: as above
c-Abl (mouse) = assay: as above
Jak2 = Jak2 (UniProt O60674); assay: as above
Fes = Fes (UniProt P07332); assay: as above
EPHB1 = EPHB1 (UniProt P54762); assay: as above
FGFR3 = FGFR3 (UniProt P22607); assay: as above
EPHB2 = EPHB2 (UniProt P29323); assay: as above
FGFR1 = FGFR1 (UniProt P11362); assay: as above
MERTK = MERTK (UniProt Q12866); assay: as above
AncSZ = assay: as above
Fer (mouse) = assay: as above
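Wherever SH2 binding enrichment of the phosphorylated peptide, bacterial display is given: peptide library displayed on the E. coli surface as eCPX fusions, selected cells deep-sequenced, score is each peptide's frequency after selection divided by its frequency in the input.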
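Wherever phosphorylation enrichment, bacterial display is given: 11-residue human phosphosite peptides and single-mutation variants displayed on the E. coli surface, counted by deep sequencing, each peptide's frequency after selection divided by its frequency in the unselected input library; frequency after pTyr selection over input frequency; kinase dosed for 20-30% of maximal phosphorylation in three min.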

Sequence of Jak2 (O60674 whole entry, looked up): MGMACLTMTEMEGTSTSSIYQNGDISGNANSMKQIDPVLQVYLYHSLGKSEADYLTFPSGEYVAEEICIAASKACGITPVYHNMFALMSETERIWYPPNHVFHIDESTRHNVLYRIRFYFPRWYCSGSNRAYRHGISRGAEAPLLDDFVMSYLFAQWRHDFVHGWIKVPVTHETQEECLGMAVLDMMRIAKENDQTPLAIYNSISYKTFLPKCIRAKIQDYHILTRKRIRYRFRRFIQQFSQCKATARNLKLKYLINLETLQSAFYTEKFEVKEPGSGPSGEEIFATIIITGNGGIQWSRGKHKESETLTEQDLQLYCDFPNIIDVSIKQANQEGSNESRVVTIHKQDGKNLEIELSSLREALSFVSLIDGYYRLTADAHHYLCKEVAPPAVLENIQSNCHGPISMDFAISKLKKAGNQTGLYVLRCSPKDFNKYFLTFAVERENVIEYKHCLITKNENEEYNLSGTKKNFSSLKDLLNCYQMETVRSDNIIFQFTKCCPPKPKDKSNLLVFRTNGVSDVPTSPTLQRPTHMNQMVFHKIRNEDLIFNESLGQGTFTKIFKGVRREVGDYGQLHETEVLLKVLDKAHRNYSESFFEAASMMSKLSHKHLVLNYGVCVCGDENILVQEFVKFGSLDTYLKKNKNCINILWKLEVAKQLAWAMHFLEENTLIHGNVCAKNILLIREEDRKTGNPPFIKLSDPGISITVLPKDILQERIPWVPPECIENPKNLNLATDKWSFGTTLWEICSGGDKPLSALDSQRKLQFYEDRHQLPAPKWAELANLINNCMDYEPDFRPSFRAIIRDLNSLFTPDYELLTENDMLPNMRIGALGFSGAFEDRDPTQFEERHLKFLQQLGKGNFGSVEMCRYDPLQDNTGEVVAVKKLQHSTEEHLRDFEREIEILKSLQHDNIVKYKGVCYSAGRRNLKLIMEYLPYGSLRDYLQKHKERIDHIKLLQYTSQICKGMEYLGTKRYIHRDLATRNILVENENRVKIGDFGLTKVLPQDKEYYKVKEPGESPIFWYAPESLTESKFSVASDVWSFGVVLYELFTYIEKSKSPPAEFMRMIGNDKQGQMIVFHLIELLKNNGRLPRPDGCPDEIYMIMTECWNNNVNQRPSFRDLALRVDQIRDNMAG
Sequence of FGFR3 (P22607 whole entry, looked up): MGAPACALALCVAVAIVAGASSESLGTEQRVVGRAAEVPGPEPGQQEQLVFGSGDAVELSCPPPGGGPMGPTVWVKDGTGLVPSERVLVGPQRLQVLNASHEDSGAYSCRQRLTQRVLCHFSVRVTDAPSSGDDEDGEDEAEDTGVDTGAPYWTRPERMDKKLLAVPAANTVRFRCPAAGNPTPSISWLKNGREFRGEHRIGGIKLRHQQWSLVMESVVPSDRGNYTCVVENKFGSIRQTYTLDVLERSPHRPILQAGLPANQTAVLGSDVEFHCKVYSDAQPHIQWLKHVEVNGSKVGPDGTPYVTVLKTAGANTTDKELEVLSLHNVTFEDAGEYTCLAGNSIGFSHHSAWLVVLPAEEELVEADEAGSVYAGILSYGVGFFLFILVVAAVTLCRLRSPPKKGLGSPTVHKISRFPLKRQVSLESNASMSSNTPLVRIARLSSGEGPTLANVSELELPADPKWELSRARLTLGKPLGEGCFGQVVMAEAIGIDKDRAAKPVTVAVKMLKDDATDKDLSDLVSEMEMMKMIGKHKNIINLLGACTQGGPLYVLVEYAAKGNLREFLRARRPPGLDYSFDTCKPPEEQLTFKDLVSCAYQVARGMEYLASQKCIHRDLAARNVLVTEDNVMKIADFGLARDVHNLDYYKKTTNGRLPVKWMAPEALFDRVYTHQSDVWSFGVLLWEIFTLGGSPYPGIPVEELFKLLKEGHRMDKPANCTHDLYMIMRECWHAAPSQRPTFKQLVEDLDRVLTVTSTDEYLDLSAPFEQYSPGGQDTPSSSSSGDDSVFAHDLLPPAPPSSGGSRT
Sequence of EPHB2 (P29323 whole entry, looked up): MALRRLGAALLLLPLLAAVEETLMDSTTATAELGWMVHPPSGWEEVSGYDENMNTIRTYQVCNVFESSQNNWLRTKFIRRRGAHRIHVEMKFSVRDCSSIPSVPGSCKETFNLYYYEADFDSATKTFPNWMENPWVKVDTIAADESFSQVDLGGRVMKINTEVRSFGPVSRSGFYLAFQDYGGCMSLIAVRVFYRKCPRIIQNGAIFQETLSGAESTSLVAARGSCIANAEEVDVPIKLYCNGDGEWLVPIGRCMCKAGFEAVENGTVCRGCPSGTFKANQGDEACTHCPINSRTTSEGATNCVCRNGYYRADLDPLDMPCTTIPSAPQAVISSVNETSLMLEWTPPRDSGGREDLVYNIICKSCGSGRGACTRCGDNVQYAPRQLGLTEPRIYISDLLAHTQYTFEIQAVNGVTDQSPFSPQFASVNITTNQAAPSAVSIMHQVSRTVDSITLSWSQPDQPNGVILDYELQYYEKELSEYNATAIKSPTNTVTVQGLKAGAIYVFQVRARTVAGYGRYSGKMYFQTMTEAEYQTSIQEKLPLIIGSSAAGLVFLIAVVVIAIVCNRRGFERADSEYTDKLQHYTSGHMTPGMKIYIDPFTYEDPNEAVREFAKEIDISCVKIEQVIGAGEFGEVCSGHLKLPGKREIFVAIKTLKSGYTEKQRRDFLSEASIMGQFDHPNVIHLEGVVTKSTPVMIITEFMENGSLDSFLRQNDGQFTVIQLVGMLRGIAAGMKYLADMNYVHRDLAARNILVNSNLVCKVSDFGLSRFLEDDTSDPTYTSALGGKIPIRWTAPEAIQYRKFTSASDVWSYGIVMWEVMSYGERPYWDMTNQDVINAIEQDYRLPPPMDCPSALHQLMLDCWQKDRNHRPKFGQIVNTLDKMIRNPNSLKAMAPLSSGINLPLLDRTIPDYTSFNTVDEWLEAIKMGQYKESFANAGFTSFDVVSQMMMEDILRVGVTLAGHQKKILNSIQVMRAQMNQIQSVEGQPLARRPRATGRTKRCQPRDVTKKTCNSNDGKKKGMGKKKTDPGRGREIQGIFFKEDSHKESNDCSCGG
Sequence of Fes (P07332 whole entry, looked up): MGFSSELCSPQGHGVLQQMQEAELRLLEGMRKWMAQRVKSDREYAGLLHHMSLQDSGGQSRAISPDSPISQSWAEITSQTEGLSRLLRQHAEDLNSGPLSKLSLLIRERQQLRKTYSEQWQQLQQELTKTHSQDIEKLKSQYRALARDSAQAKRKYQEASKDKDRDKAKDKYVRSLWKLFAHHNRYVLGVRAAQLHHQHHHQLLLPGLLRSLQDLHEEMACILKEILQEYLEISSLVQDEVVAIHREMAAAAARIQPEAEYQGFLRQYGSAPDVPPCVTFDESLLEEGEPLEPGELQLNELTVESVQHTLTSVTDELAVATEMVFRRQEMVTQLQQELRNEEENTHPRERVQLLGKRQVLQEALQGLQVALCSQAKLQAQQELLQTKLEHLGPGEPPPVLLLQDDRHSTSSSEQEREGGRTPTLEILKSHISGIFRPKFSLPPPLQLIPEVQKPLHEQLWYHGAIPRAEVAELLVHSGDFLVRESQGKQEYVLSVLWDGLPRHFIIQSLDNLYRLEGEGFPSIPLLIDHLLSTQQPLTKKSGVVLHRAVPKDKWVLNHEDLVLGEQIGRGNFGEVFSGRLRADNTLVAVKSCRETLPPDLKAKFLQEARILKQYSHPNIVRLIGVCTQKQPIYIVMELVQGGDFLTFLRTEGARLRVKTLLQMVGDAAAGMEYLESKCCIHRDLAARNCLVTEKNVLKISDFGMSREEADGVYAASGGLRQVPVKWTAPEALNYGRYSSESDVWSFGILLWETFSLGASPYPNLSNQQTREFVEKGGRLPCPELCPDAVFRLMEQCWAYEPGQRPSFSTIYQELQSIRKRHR
Sequence of EPHB1 (P54762 whole entry, looked up): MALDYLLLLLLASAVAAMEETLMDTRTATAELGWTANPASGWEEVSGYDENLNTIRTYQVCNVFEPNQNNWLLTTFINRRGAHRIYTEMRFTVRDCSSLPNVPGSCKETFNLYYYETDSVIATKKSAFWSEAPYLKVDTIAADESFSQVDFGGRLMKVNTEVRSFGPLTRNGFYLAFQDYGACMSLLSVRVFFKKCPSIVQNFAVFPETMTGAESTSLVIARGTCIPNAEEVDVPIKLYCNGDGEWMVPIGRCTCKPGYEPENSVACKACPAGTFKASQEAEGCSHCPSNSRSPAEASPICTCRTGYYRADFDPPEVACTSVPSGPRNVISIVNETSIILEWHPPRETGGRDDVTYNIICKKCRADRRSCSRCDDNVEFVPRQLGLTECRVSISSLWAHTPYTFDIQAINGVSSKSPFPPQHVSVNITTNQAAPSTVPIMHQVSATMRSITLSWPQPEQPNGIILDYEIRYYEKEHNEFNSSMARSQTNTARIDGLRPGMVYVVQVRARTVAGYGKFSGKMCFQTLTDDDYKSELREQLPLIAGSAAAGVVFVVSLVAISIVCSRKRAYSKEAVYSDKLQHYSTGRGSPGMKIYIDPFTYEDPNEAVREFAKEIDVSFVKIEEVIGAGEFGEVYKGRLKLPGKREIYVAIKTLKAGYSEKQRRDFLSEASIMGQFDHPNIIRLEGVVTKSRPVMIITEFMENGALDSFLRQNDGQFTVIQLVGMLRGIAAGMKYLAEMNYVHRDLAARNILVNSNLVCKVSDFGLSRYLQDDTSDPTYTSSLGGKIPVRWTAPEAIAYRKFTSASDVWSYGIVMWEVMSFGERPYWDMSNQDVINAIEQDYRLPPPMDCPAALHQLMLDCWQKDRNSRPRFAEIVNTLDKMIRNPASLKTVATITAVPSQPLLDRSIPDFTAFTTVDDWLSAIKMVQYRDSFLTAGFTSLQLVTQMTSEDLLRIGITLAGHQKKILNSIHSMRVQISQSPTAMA
Sequence of Grb2 SH2 (P62993 whole entry, looked up): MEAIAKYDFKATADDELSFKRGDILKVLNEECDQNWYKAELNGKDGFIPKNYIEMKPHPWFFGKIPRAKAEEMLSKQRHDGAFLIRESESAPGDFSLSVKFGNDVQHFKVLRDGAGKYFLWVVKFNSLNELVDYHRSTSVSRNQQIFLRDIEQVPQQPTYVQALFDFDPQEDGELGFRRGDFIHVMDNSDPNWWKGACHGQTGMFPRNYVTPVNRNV

Row | Sequence | SH2 binding enrichment (Grb2 SH2) | SH2 binding enrichment (c-Src SH2) | SH2 binding enrichment (SHP2-C SH2) | phosphorylation enrichment (Hck) | phosphorylation enrichment (c-Src) | phosphorylation enrichment (Fyn) | phosphorylation enrichment (c-Abl (mouse)) | phosphorylation enrichment (Jak2) | phosphorylation enrichment (Fes) | phosphorylation enrichment (EPHB1) | phosphorylation enrichment (FGFR3) | phosphorylation enrichment (EPHB2) | phosphorylation enrichment (FGFR1) | phosphorylation enrichment (MERTK) | phosphorylation enrichment (AncSZ) | phosphorylation enrichment (Fer (mouse))
1 | CEDMEYLESKQ [BTK_Y511_A508D] | 0.805 | 0.454 | 0.622 | 0.643 | 0.53 | 0.494 | 0.828 | 1.22 | 1.35 | 0.652 | 0.734 | 0.783 | 0.476 | 0.497 | 1.3 | 0.652
2 | CEHRGFLYLAI [TEK_Y897_Y897F] | 1.47 | 0.883 | 1.14 | 0.453 | 0.564 | 0.372 | 0.947 | 0.801 | 1.16 | 0.464 | 0.698 | 0.466 | 0.419 | 0.442 | 0.971 | 0.545
3 | CIILLYIFLKN [STXBP1_Y411_R406C] | 2.18 | 1.49 | 1.74 | 0.465 | 0.37 | 0.378 | 0.492 | 0.553 | 0.693 | 0.441 | 0.531 | 0.275 | 0.392 | 0.363 | 0.676 | 0.406
4 | CKQGKYLNWDA [ATM_Y54_S49C] | 5.58 | 0.735 | 1.24 | 0.423 | 0.366 | 0.418 | 0.605 | 0.782 | 0.839 | 0.552 | 0.632 | 0.494 | 0.447 | 0.39 | 0.921 | 0.397
5 | CLMILHRLKER [PTPRR_Y249_Y249H] | 1.04 | 0.799 | 1.35 | 0.426 | 0.395 | 0.464 | 0.548 | 1.03 | 1.19 | 0.496 | 0.575 | 0.569 | 0.436 | 0.437 | 1.05 | 0.516
6 | CLMILYRLKER [PTPRR_Y249] | 1.25 | 0.901 | 1.22 | 0.494 | 0.388 | 0.5 | 0.576 | 0.997 | 1.23 | 0.444 | 0.809 | 0.603 | 0.509 | 0.364 | 1.26 | 0.501
7 | CNNFIYGGCRG [SPINT2_Y163] | 1.28 | 1.24 | 0.984 | 3.35 | 5.21 | 3.89 | 0.442 | 0.591 | 0.699 | 0.361 | 0.382 | 0.404 | 0.455 | 0.391 | 0.543 | 0.371
8 | CPASVYTKRCS [CPT2_Y508_R503C] | 0.982 | 0.584 | 0.765 | 0.392 | 0.431 | 0.434 | 0.442 | 0.518 | 0.549 | 0.349 | 0.441 | 0.403 | 0.447 | 0.447 | 0.598 | 0.354
9 | CPSLPYSPVSS [CAMKK2_Y128] | 0.978 | 0.712 | 0.855 | 0.497 | 0.787 | 0.545 | 0.654 | 0.905 | 0.847 | 0.491 | 0.7 | 0.607 | 0.588 | 0.527 | 0.813 | 3.14
10 | CRERPYGGGGG [FUS_Y526_R521C] | 0.87 | 0.651 | 0.593 | 0.481 | 0.377 | 0.389 | 0.459 | 0.587 | 1.13 | 0.552 | 0.468 | 0.406 | 0.556 | 0.438 | 0.631 | 0.647
11 | CRPPYYHRNCM [HGD_Y334_F329C] | 1.78 | 1.65 | 1.25 | 0.761 | 0.452 | 0.565 | 0.743 | 0.992 | 0.856 | 0.436 | 0.628 | 0.556 | 0.617 | 0.515 | 0.837 | 0.458
12 | CSEETYRLMLQ [RET_Y981_M980T] | 0.643 | 0.467 | 0.553 | 0.576 | 0.627 | 0.586 | 0.81 | 1.03 | 1.29 | 0.65 | 1.06 | 0.611 | 0.741 | 0.451 | 1.28 | 0.703
13 | CSHKFYGKQCC [ADAMTS16_Y1211] | 1.04 | 0.765 | 1.01 | 0.415 | 0.268 | 0.346 | 0.505 | 0.513 | 0.673 | 0.498 | 0.499 | 0.477 | 0.391 | 0.396 | 0.607 | 0.448
14 | CSRCFYQLTKL [AR_Y858_R856C] | 1.24 | 1.18 | 1.52 | 0.362 | 1.14 | 0.429 | 0.564 | 0.728 | 0.904 | 0.45 | 0.587 | 0.459 | 0.601 | 0.55 | 0.864 | 1.85
15 | CTHDLYMIMRE [FGFR3_Y724] | 0.811 | 0.573 | 0.708 | 0.971 | 2.22 | 0.564 | 0.848 | 1.44 | 1.46 | 2.05 | 0.837 | 1.03 | 0.634 | 1.18 | 1.31 | 0.667
